Data set [1] concerns HeLa Kyoto. The data set can be described thus: thermal stability score vs G1/S (z-score of summed log2 fold changes over temperatures); higher = more thermally stable than in G1/S.
Data set [2] deals with HeLa Kyoto. The data set can be described thus: solubility in G1/S (NP-40 vs SDS abundance) (log2 ratio); higher = more soluble. To be noted: cell cycle stage: G1/S.
The test system of data set [3] is HeLa Kyoto. The data set can be described thus: solubility change mitosis vs G1/S (difference of NP-40 vs SDS log2 ratios) (log2 ratio difference); higher = more soluble in mitosis.
Setting [4] is: cell cycle stage: early G1 (4.5 h after nocodazole release).
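Wherever solubility change mitosis vs G1/S (difference of NP-40 vs SDS log2 ratios) is given: synchronized HeLa Kyoto cells (double thymidine block for G1/S, nocodazole release for mitosis), protein amounts in NP-40 versus SDS lysates quantified by mass spectrometry, three biological replicates.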
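Wherever solubility in G1/S (NP-40 vs SDS abundance) is given: HeLa Kyoto cells arrested at G1/S by double thymidine block, proteins quantified by TMT10plex mass spectrometry in mild NP-40 versus SDS extracts, three biological replicates.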
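Wherever thermal stability score vs G1/S (z-score of summed log2 fold changes over temperatures) is given: synchronized HeLa Kyoto cells, proteins quantified by TMT10plex mass spectrometry, three biological replicates, mitosis taken 0.5 h after nocodazole release, G1/S directly after double thymidine block.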

As for “MPEEAGFPPAKRFRPGSGPPSRAGSFPPGRQVVMLLTAGSGGRGGGGGRRQQPPLAQPSASPYPEAVELQRRSLPIFQARGQLLAQLRNLDNAVLIGETGSGKTTQIPQYLYEGGISRQGIIAVTQPRRVAAISLATRVSDEKRTELGKLVGYTVRFDDVTSEDTRIKFLTDGMLLREAISDSLLRKYSCVILDEAHERTIHTDVLFGVVKAAQKRRKELGKLPLKVIVMSATMDVDLFSQYFNGAPVLYLEGRQHPIQVFYTKQPQNDYLHAALVSVFQIHQEAPSSQDILVFLTGQEEIEAMSKTCRDIAKHLPDGCPAMLVLPLYASLPYAQQLRVFQGAPKGYRKVIISTNIAETSITITGIKYVVDTGMVKAKKYNPDSGLEVLAVQRVSKTQAWQRTGRAGREDSGICYRLYTEDEFEKFDKMTVPEIQRCNLASVMLQLLAMKVPNVLTFDFMSKPSPDHIQAAIAQLDLLGALEHKDDQLTLTPMGRKMAAFPLEPKFAKTILMSPKFHCTEEILTIVSLLSVDSVLHNPPSRREEVQGVRKKFISSEGDHMTLLNIYRTFKNLGGNKDWCKENFVNSKNMTLVAEVRAQLRDICLKMSMPIASSRGDVESVRRCLAHSLFMSTAELQPDGTYATTDTHQPVAIHPSSVLFHCKPACVVYTELLYTNKCYMRDLCVIDAQWLYEAAPEYFRRKLRTARN [DHX33]”, the thermal stability score in the data set on HeLa Kyoto [1] (setting [4]) came to 0.61; in the data set on HeLa Kyoto [1] (cell cycle stage: mitosis), 0.974. Moreover, the “solubility in G1/S (log2)” value in the data set on HeLa Kyoto [2] is -1.03. In addition, the “solubility change mitosis (log2)” value in the data set on HeLa Kyoto [3] is 0.463.
As for “MPGPQGGRGAATMSLGKLSPVGWVSSSQGKRRLTADMISHPLGDFRHTMHVGRGGDVFGDTSFLSNHGGSSGSTHRSPRSFLAKKLQLVRRVGAPPRRMASPPAPSPAPPAISPIIKNAISLPQLNQAAYDSLVVGKLSFDSSPTSSTDGHSSYGLDSGFCTISRLPRSEKPHDRDRDGSFPSEPGLRRSDSLLSFRLDLDLGPSLLSELLGVMSLPEAPAAETPAPAANPPAPTANPTGPAANPPATTANPPAPAANPSAPAATPTGPAANPPAPAASSTPHGHCPNGVTAGLGPVAEVKSSPVGGGPRGPAGPALGRHWGAGWDGGHHYPEMDARQERVEVLPQARASWESLDEEWRAPQAGSRTPVPSTVQANTFEFADAEEDDEVKV [CDC42EP1]”, the thermal stability score in the data set on HeLa Kyoto [1] (setting [4]) is -0.817; with HeLa Kyoto [1] (cell cycle stage: mitosis) it was -1.35. Also, the “solubility in G1/S (log2)” value in the data set on HeLa Kyoto [2] came to 0.536. In addition, the “solubility change mitosis (log2)” value in the data set on HeLa Kyoto [3] was 0.0734.
“MPLVVFCGLPYSGKSRRAEELRVALAAEGRAVYVVDDAAVLGAEDPAVYGDSAREKALRGALRASVERRLSRHDVVILDSLNYIKGFRYELYCLARAARTPLCLVYCVRPGGPIAGPQVAGANENPGRNVSVSWRPRAEEDGRAQAAGSSVLRELHTADSVVNGSAQADVPKELEREESGAAESPALVTPDSEKSAKHGSGAFYSPELLEALTLRFEAPDSRNRWDRPLFTLVGLEEPLPLAGIRSALFENRAPPPHQSTQSQPLASGSFLHQLDQVTSQVLAGLMEAQKSAVPGDLLTLPGTTEHLRFTRPLTMAELSRLRRQFISYTKMHPNNENLPQLANMFLQYLSQSLH [KTI12]”: the thermal stability score is -1.22 in the data set on HeLa Kyoto [1] (setting [4]) and -1.26 in the data set with HeLa Kyoto [1] (cell cycle stage: mitosis). Besides, the “solubility in G1/S (log2)” value with HeLa Kyoto [2] was 0.526. In the data set with HeLa Kyoto [3], the “solubility change mitosis (log2)” value is -0.00671.
Take “MPTNFTVVPVEAHADGGGDETAERTEAPGTPEGPEPERPSPGDGNPRENSPFLNNVEVEQESFFEGKNMALFEEEMDSNPMVSSLLNKLANYTNLSQGVVEHEEDEESRRREAKAPRMGTFIGVYLPCLQNILGVILFLRLTWIVGVAGVLESFLIVAMCCTCTMLTAISMSAIATNGVVPAGGSYYMISRSLGPEFGGAVGLCFYLGTTFAGAMYILGTIEIFLTYISPGAAIFQAEAAGGEAAAMLHNMRVYGTCTLVLMALVVFVGVKYVNKLALVFLACVVLSILAIYAGVIKSAFDPPDIPVCLLGNRTLSRRSFDACVKAYGIHNNSATSALWGLFCNGSQPSAACDEYFIQNNVTEIQGIPGAASGVFLENLWSTYAHAGAFVEKKGVPSVPVAEESRASALPYVLTDIAASFTLLVGIYFPSVTGIMAGSNRSGDLKDAQKSIPTGTILAIVTTSFIYLSCIVLFGACIEGVVLRDKFGEALQGNLVIGMLAWPSPWVIVIGSFFSTCGAGLQSLTGAPRLLQAIARDGIVPFLQVFGHGKANGEPTWALLLTVLICETGILIASLDSVAPILSMFFLMCYLFVNLACAVQTLLRTPNWRPRFKFYHWTLSFLGMSLCLALMFICSWYYALSAMLIAGCIYKYIEYRGAEKEWGDGIRGLSLNAARYALLRVEHGPPHTKNWRPQVLVMLNLDAEQAVKHPRLLSFTSQLKAGKGLTIVGSVLEGTYLDKHMEAQRAEENIRSLMSTEKTKGFCQLVVSSSLRDGMSHLIQSAGLGGLKHNTVLMAWPASWKQEDNPFSWKNFVDTVRDTTAAHQALLVAKNVDSFPQNQERFGGGHIDVWWIVHDGGMLMLLPFLLRQHKVWRKCRMRIFTVAQVDDNSIQMKKDLQMFLYHLRISAEVEVVEMVENDISAFTYERTLMMEQRSQMLKQMQLSKNEQEREAQLIHDRNTASHTAAAARTQAPPTPDKVQMTWTREKLIAEKYRSRDTSLSGFKDLFSMKPDQSNVRRMHTAVKLNGVVLNKSQDAQLVLLNMPGPPKNRQGDENYMEFLEVLTEGLNRVLLVRGGGREVITIYS [SLC12A7]”: the thermal stability score is 0.109 in the data set on HeLa Kyoto [1] (setting [4]) and 0.0218 in the data set on HeLa Kyoto [1] (cell cycle stage: mitosis). In addition, the “solubility in G1/S (log2)” value in the data set on HeLa Kyoto [2] is -0.103. For the same substance, the “solubility change mitosis (log2)” value in the data set on HeLa Kyoto [3] was -0.0793.
In the case of MPV17L2, the thermal stability score in the data set with HeLa Kyoto [1] (setting [4]) is -0.139; with HeLa Kyoto [1] (cell cycle stage: mitosis) it was -0.811. Moreover, the “solubility in G1/S (log2)” value in the data set with HeLa Kyoto [2] was -0.0909. Moreover, the “solubility change mitosis (log2)” value in the data set with HeLa Kyoto [3] was -0.154.

These data come from the supplement of paper PMC5998384.
